The values below come from article PMC3553997 (Nucleic Acids Research, 2012).

In one data set the target is T1, TreR (TM0393) (Thermotoga maritima, UniProt Q9WYM4).
T1 sequence (Q9WYM4 1-371): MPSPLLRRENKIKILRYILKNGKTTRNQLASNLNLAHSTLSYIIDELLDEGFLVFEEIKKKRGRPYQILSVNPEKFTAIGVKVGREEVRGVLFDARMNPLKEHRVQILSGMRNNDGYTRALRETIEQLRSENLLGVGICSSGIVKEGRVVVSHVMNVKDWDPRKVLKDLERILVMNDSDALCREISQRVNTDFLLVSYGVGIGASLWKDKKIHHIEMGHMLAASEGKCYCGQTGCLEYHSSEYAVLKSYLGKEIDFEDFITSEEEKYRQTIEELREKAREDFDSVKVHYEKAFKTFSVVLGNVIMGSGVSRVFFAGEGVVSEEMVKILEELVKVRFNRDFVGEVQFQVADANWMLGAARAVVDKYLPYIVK
The experiment in a line: EMSA, loss of operator DNA binding. To be noted: 50 nM protein, TM0392/treT operator DNA; pH 8.0, 150 mM KCl, 5 mM MgCl2, 60°C.

For a further data set, the target named is T2, XylR (Thermotoga maritima MSB8, UniProt Q9WXW5 1-378).
T2 sequence: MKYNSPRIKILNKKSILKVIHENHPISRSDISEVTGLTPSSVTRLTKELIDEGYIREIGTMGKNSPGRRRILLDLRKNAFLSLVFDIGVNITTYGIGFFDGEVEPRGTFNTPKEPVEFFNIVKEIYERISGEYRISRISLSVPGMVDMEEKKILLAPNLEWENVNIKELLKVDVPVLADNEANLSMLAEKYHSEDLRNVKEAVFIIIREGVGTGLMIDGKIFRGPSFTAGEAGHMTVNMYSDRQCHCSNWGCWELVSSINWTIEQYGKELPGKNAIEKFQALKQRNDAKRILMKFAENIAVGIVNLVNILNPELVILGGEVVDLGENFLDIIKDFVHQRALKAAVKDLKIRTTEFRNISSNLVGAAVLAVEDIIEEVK
The experiment in a line: EMSA.

For the next data set, the target named is T3, TreR (Thermotoga maritima, UniProt Q9WYM4 1-371).
T3 sequence: T1 sequence (Q9WYM4 1-371)
The experiment in a line: EMSA.

The target in a further data set is T4, BglR (Thermotoga maritima MSB8, UniProt Q9WXN9 1-381).
T4 sequence: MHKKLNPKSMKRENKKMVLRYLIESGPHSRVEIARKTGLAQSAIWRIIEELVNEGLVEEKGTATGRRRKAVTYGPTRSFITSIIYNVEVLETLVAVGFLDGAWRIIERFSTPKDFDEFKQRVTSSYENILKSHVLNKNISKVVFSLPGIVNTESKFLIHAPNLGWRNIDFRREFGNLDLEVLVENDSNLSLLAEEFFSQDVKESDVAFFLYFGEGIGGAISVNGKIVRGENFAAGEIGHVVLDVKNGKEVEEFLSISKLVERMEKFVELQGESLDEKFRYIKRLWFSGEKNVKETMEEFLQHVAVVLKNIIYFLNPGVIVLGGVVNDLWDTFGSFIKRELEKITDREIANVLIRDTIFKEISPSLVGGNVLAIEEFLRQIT
The experiment in a line: EMSA. (A gel shift assay detects complexes by their altered migration in electrophoresis.)

The next data set has as its target T5, ManR (Thermotoga maritima, UniProt Q9X0V1 1-368).
T5 sequence: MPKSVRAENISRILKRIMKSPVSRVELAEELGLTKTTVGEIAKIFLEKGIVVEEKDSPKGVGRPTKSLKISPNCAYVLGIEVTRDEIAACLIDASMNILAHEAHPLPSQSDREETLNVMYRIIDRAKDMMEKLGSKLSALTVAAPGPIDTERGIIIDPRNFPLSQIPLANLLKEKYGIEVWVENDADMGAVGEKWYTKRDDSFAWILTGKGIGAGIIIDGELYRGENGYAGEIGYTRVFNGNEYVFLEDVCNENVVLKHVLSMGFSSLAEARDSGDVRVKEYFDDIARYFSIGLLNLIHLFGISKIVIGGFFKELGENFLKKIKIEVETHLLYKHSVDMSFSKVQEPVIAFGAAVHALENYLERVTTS
The experiment in a line: EMSA.

The target of the next data set is T6, IolR (Thermotoga maritima MSB8, UniProt Q9WYP2 1-383).
T6 sequence: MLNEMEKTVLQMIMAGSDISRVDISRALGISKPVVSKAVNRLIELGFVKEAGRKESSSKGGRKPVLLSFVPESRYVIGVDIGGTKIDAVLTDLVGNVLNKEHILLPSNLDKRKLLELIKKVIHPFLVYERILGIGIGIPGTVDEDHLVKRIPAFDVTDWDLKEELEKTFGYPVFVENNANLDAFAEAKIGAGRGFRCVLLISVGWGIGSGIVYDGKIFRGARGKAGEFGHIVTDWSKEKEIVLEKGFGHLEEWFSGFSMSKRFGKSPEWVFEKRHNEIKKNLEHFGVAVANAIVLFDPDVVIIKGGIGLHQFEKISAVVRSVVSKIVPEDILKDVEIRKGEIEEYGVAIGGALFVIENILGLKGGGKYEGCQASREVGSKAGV
The experiment in a line: EMSA.

The next data set concerns the target T7, ChiR (Thermotoga maritima, UniProt Q9WZR5 1-355).
T7 sequence: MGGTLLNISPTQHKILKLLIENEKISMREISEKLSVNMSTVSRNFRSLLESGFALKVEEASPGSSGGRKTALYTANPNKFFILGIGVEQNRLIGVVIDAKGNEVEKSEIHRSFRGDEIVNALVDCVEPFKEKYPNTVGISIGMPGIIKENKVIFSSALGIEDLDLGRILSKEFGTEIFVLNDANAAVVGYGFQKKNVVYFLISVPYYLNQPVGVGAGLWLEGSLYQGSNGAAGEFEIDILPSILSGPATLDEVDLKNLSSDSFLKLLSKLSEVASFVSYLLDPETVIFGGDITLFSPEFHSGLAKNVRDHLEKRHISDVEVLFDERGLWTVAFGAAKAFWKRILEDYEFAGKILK
The experiment in a line: EMSA.

As for `OC[C@H]1O[C@H](O[C@H]2O[C@H](CO)[C@@H](O)[C@H](O)[C@H]2O)[C@H](O)[C@@H](O)[C@@H]1O` [Trehalose], the “Tested potential ligands / (Sugar)” value at TreR (TM0393) worked out at 0.2 mM.

B1: xynA site (dsDNA)
DNA 1: TCGAAGAAGCTCAATTTTTTCTTTACAAAAAATAACTTTAGGGTGATAT
DNA 2: ATATCACCCTAAAGTTATTTTTTGTAAAGAAAAAATTGAGCTTCTTCGA
B1 came in with a binding signal in the data set with XylR of 2.5 nM.

B2: xylA site (dsDNA)
DNA 1: CCCAAGATTTTATATAATTGATTGATAGAAAAAATTTAGGGAGGTGTTT
DNA 2: AAACACCTCCCTAAATTTTTTCTATCAATCAATTATATAAAATCTTGGG
B2 gave a binding signal in the data set with XylR of 5 nM.

B3: xloE site (dsDNA)
DNA 1: AGATTTACATTAAAATATTTCCCGAAAGGAAAAAATATAACATACAATC
DNA 2: GATTGTATGTTATATTTTTTCCTTTCGGGAAATATTTTAATGTAAATCT
In turn, B3 yielded a binding signal with XylR of 5 nM.

B4: treT site (dsDNA)
DNA 1: TGATTAATTGTGTATTAATTCAAGTTACGAATAAATTTGGGAGGGATCA
DNA 2: TGATCCCTCCCAAATTTATTCGTAACTTGAATTAATACACAATTAATCA
B4 returned a binding signal with TreR of 10 nM.

B5: xylR site (dsDNA)
DNA 1: ACCTTGATTTTAAATTATTTCCTGCATATAATTAATGTGAACATAATAT
DNA 2: ATATTATGTTCACATTAATTATATGCAGGAAATAATTTAAAATCAAGGT
For the molecule B5, in the data set with XylR, the binding signal was found to be 2.5 nM.

B6: bglR site (dsDNA)
DNA 1: GAGTCATATCGTTATAATTTCTTTCTGAGGAAGATAGATAAGAAGCAGG
DNA 2: CCTGCTTCTTATCTATCTTCCTCAGAAAGAAATTATAACGATATGACTC
Molecule B6 had a binding signal in the data set with BglR of 2.5 nM.

B7: manB site (dsDNA)
DNA 1: CGATGACCCTGATAAATAAGTAAAGTTTACTAATTAACGGGAGGTATCG
DNA 2: CGATACCTCCCGTTAATTAGTAAACTTTACTTATTTATCAGGGTCATCG
For B7, in the data set with ManR, the binding signal was 10 nM.

B8: iolR site (dsDNA)
DNA 1: TAGTTGACAAATTGATTATAATGTGGTTGGTTAGTTAACGATAACAAACGAAAGGAATGGAAAAATGCTGAAT
DNA 2: ATTCAGCATTTTTCCATTCCTTTCGTTTGTTATCGTTAACTAACCAACCACATTATAATCAATTTGTCAACTA
In the case of B8, the binding signal in the data set with IolR turned out to be 2.5 nM.

B9: chiR site (dsDNA)
DNA 1: ACAATAATTTATGAAGTTGTTTGCGGCATGCAACTAACTGATGGGAGGG
DNA 2: CCCTCCCATCAGTTAGTTGCATGCCGCAAACAACTTCATAAATTATTGT
In turn, B9 yielded a binding signal in the data set with ChiR of 0.5 nM.

B10: mtpE site (dsDNA)
DNA 1: TAACATAATCTTTTTATTAGTAAGTGTTATTTATTAACATCCATTTAAA
DNA 2: TTTAAATGGATGTTAATAAATAACACTTACTAATAAAAAGATTATGTTA
B10 came in with a binding signal with ManR of 25 nM.
